Source: patent US20240400654A1
Where “and” joins values, the source holds several entries; their conditions need not be identical. Identical values can stand only once.

Key:
[1] = molecular target: HRgpA-6H (Porphyromonas gingivalis) (UniProt P28784); test: ELISA on coated HRgpA-6H, OD relative to parental Fab
[2] = molecular target: HRgpA-6H (Porphyromonas gingivalis) (UniProt P28784); test: ELISA, FASEBA Fab supernatant on coated HRgpA-6H

Sequence of UniProt P28784 (P28784 228-860 limits assumed): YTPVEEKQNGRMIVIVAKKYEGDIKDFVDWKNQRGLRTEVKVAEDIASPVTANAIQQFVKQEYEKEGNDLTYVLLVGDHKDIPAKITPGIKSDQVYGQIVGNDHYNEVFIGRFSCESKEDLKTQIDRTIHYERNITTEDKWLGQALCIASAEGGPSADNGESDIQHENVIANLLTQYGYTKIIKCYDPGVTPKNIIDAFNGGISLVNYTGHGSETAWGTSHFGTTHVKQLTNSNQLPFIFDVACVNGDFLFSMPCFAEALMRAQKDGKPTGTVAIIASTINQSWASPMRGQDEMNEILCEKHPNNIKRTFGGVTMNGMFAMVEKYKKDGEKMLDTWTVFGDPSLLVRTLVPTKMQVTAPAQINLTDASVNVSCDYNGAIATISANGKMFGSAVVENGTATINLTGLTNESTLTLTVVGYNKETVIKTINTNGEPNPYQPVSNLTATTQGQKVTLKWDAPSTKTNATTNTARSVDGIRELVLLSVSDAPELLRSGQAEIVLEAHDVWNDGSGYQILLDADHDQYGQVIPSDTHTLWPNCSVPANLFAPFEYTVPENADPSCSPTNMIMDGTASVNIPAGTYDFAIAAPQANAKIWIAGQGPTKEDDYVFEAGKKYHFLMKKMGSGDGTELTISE

Row | Binder | Ratio OD(Variant)/OD(WT) [1] | OD450 nm [2]
1 | KB001 mouse Fab variant VL A56Q (Fab, V domains shown) VH: EVQLKQSGPGLVAPSQSLSITCTVSGFSLSIYSVHWVRQPPGKGLEWLGMIWGGGSSDYNSALKSRLSISKDNSKSQVFLKMNSLQTDDTAMYYCARNGNFYAMDYWGQGTSVTVSS VL: QIVLTQSPAIMSASLGERVTMTCTASSSVSSSFLHWYQQKPGSSPQLWIYSTSNLQSGVPARFSGSGSGTSYSLTISSMEAEDAATYYCHQYHHSPYIYTFGGGTKLEIK | 0.865 fold | 0.705
2 | KB001 mouse Fab variant VL H90W (Fab, V domains shown) VH: EVQLKQSGPGLVAPSQSLSITCTVSGFSLSIYSVHWVRQPPGKGLEWLGMIWGGGSSDYNSALKSRLSISKDNSKSQVFLKMNSLQTDDTAMYYCARNGNFYAMDYWGQGTSVTVSS VL: QIVLTQSPAIMSASLGERVTMTCTASSSVSSSFLHWYQQKPGSSPQLWIYSTSNLASGVPARFSGSGSGTSYSLTISSMEAEDAATYYCWQYHHSPYIYTFGGGTKLEIK | 0.886 fold | 0.763
3 | KB001 mouse Fab variant VL S57I (Fab, V domains shown) VH: EVQLKQSGPGLVAPSQSLSITCTVSGFSLSIYSVHWVRQPPGKGLEWLGMIWGGGSSDYNSALKSRLSISKDNSKSQVFLKMNSLQTDDTAMYYCARNGNFYAMDYWGQGTSVTVSS VL: QIVLTQSPAIMSASLGERVTMTCTASSSVSSSFLHWYQQKPGSSPQLWIYSTSNLAIGVPARFSGSGSGTSYSLTISSMEAEDAATYYCHQYHHSPYIYTFGGGTKLEIK | 0.97 fold | 0.791
4 | KB001 mouse Fab variant VL S57M (Fab, V domains shown) VH: EVQLKQSGPGLVAPSQSLSITCTVSGFSLSIYSVHWVRQPPGKGLEWLGMIWGGGSSDYNSALKSRLSISKDNSKSQVFLKMNSLQTDDTAMYYCARNGNFYAMDYWGQGTSVTVSS VL: QIVLTQSPAIMSASLGERVTMTCTASSSVSSSFLHWYQQKPGSSPQLWIYSTSNLAMGVPARFSGSGSGTSYSLTISSMEAEDAATYYCHQYHHSPYIYTFGGGTKLEIK | 0.914 fold | 0.745
5 | KB001 mouse Fab variant VL S57E (Fab, V domains shown) VH: EVQLKQSGPGLVAPSQSLSITCTVSGFSLSIYSVHWVRQPPGKGLEWLGMIWGGGSSDYNSALKSRLSISKDNSKSQVFLKMNSLQTDDTAMYYCARNGNFYAMDYWGQGTSVTVSS VL: QIVLTQSPAIMSASLGERVTMTCTASSSVSSSFLHWYQQKPGSSPQLWIYSTSNLAEGVPARFSGSGSGTSYSLTISSMEAEDAATYYCHQYHHSPYIYTFGGGTKLEIK | 0.921 fold | 0.751
6 | KB001 mouse Fab variant VL H90L (Fab, V domains shown) VH: EVQLKQSGPGLVAPSQSLSITCTVSGFSLSIYSVHWVRQPPGKGLEWLGMIWGGGSSDYNSALKSRLSISKDNSKSQVFLKMNSLQTDDTAMYYCARNGNFYAMDYWGQGTSVTVSS VL: QIVLTQSPAIMSASLGERVTMTCTASSSVSSSFLHWYQQKPGSSPQLWIYSTSNLASGVPARFSGSGSGTSYSLTISSMEAEDAATYYCLQYHHSPYIYTFGGGTKLEIK | 0.911 fold and 0.806 fold | 0.785 and 0.694
7 | KB001 mouse Fab variant VL A56P (Fab, V domains shown) VH: EVQLKQSGPGLVAPSQSLSITCTVSGFSLSIYSVHWVRQPPGKGLEWLGMIWGGGSSDYNSALKSRLSISKDNSKSQVFLKMNSLQTDDTAMYYCARNGNFYAMDYWGQGTSVTVSS VL: QIVLTQSPAIMSASLGERVTMTCTASSSVSSSFLHWYQQKPGSSPQLWIYSTSNLPSGVPARFSGSGSGTSYSLTISSMEAEDAATYYCHQYHHSPYIYTFGGGTKLEIK | 0.917 fold | 0.748
8 | KB001 mouse Fab variant VL S57W (Fab, V domains shown) VH: EVQLKQSGPGLVAPSQSLSITCTVSGFSLSIYSVHWVRQPPGKGLEWLGMIWGGGSSDYNSALKSRLSISKDNSKSQVFLKMNSLQTDDTAMYYCARNGNFYAMDYWGQGTSVTVSS VL: QIVLTQSPAIMSASLGERVTMTCTASSSVSSSFLHWYQQKPGSSPQLWIYSTSNLAWGVPARFSGSGSGTSYSLTISSMEAEDAATYYCHQYHHSPYIYTFGGGTKLEIK | 0.961 fold | 0.784
9 | KB001 mouse Fab variant VL S57N (Fab, V domains shown) VH: EVQLKQSGPGLVAPSQSLSITCTVSGFSLSIYSVHWVRQPPGKGLEWLGMIWGGGSSDYNSALKSRLSISKDNSKSQVFLKMNSLQTDDTAMYYCARNGNFYAMDYWGQGTSVTVSS VL: QIVLTQSPAIMSASLGERVTMTCTASSSVSSSFLHWYQQKPGSSPQLWIYSTSNLANGVPARFSGSGSGTSYSLTISSMEAEDAATYYCHQYHHSPYIYTFGGGTKLEIK | 0.997 fold | 0.813
10 | KB001 mouse Fab variant VL S57L (Fab, V domains shown) VH: EVQLKQSGPGLVAPSQSLSITCTVSGFSLSIYSVHWVRQPPGKGLEWLGMIWGGGSSDYNSALKSRLSISKDNSKSQVFLKMNSLQTDDTAMYYCARNGNFYAMDYWGQGTSVTVSS VL: QIVLTQSPAIMSASLGERVTMTCTASSSVSSSFLHWYQQKPGSSPQLWIYSTSNLALGVPARFSGSGSGTSYSLTISSMEAEDAATYYCHQYHHSPYIYTFGGGTKLEIK | 0.958 fold | 0.781
11 | KB001 mouse Fab variant VL S57K (Fab, V domains shown) VH: EVQLKQSGPGLVAPSQSLSITCTVSGFSLSIYSVHWVRQPPGKGLEWLGMIWGGGSSDYNSALKSRLSISKDNSKSQVFLKMNSLQTDDTAMYYCARNGNFYAMDYWGQGTSVTVSS VL: QIVLTQSPAIMSASLGERVTMTCTASSSVSSSFLHWYQQKPGSSPQLWIYSTSNLAKGVPARFSGSGSGTSYSLTISSMEAEDAATYYCHQYHHSPYIYTFGGGTKLEIK | 0.873 fold | 0.712
12 | KB001 mouse Fab variant VL A56S (Fab, V domains shown) VH: EVQLKQSGPGLVAPSQSLSITCTVSGFSLSIYSVHWVRQPPGKGLEWLGMIWGGGSSDYNSALKSRLSISKDNSKSQVFLKMNSLQTDDTAMYYCARNGNFYAMDYWGQGTSVTVSS VL: QIVLTQSPAIMSASLGERVTMTCTASSSVSSSFLHWYQQKPGSSPQLWIYSTSNLSSGVPARFSGSGSGTSYSLTISSMEAEDAATYYCHQYHHSPYIYTFGGGTKLEIK | 0.947 fold and 0.921 fold and 0.949 fold | 0.772 and 0.751 and 0.774
13 | KB001 mouse Fab variant VL S57A (Fab, V domains shown) VH: EVQLKQSGPGLVAPSQSLSITCTVSGFSLSIYSVHWVRQPPGKGLEWLGMIWGGGSSDYNSALKSRLSISKDNSKSQVFLKMNSLQTDDTAMYYCARNGNFYAMDYWGQGTSVTVSS VL: QIVLTQSPAIMSASLGERVTMTCTASSSVSSSFLHWYQQKPGSSPQLWIYSTSNLAAGVPARFSGSGSGTSYSLTISSMEAEDAATYYCHQYHHSPYIYTFGGGTKLEIK | 0.988 fold | 0.806
14 | KB001 mouse Fab variant VL Q91M (Fab, V domains shown) VH: EVQLKQSGPGLVAPSQSLSITCTVSGFSLSIYSVHWVRQPPGKGLEWLGMIWGGGSSDYNSALKSRLSISKDNSKSQVFLKMNSLQTDDTAMYYCARNGNFYAMDYWGQGTSVTVSS VL: QIVLTQSPAIMSASLGERVTMTCTASSSVSSSFLHWYQQKPGSSPQLWIYSTSNLASGVPARFSGSGSGTSYSLTISSMEAEDAATYYCHMYHHSPYIYTFGGGTKLEIK | 0.879 fold | 0.757
15 | KB001 mouse Fab variant VL A56R (Fab, V domains shown) VH: EVQLKQSGPGLVAPSQSLSITCTVSGFSLSIYSVHWVRQPPGKGLEWLGMIWGGGSSDYNSALKSRLSISKDNSKSQVFLKMNSLQTDDTAMYYCARNGNFYAMDYWGQGTSVTVSS VL: QIVLTQSPAIMSASLGERVTMTCTASSSVSSSFLHWYQQKPGSSPQLWIYSTSNLRSGVPARFSGSGSGTSYSLTISSMEAEDAATYYCHQYHHSPYIYTFGGGTKLEIK | 0.893 fold and 0.9 fold and 0.921 fold | 0.728 and 0.734 and 0.751
16 | KB001 mouse Fab variant VL A56M (Fab, V domains shown) VH: EVQLKQSGPGLVAPSQSLSITCTVSGFSLSIYSVHWVRQPPGKGLEWLGMIWGGGSSDYNSALKSRLSISKDNSKSQVFLKMNSLQTDDTAMYYCARNGNFYAMDYWGQGTSVTVSS VL: QIVLTQSPAIMSASLGERVTMTCTASSSVSSSFLHWYQQKPGSSPQLWIYSTSNLMSGVPARFSGSGSGTSYSLTISSMEAEDAATYYCHQYHHSPYIYTFGGGTKLEIK | 0.983 fold and 0.86 fold | 0.802 and 0.701
17 | KB001 mouse Fab variant VL S57R (Fab, V domains shown) VH: EVQLKQSGPGLVAPSQSLSITCTVSGFSLSIYSVHWVRQPPGKGLEWLGMIWGGGSSDYNSALKSRLSISKDNSKSQVFLKMNSLQTDDTAMYYCARNGNFYAMDYWGQGTSVTVSS VL: QIVLTQSPAIMSASLGERVTMTCTASSSVSSSFLHWYQQKPGSSPQLWIYSTSNLARGVPARFSGSGSGTSYSLTISSMEAEDAATYYCHQYHHSPYIYTFGGGTKLEIK | 0.915 fold | 0.746
18 | KB001 mouse Fab variant VL A56V (Fab, V domains shown) VH: EVQLKQSGPGLVAPSQSLSITCTVSGFSLSIYSVHWVRQPPGKGLEWLGMIWGGGSSDYNSALKSRLSISKDNSKSQVFLKMNSLQTDDTAMYYCARNGNFYAMDYWGQGTSVTVSS VL: QIVLTQSPAIMSASLGERVTMTCTASSSVSSSFLHWYQQKPGSSPQLWIYSTSNLVSGVPARFSGSGSGTSYSLTISSMEAEDAATYYCHQYHHSPYIYTFGGGTKLEIK | 0.974 fold and 0.975 fold | 0.794 and 0.795
19 | KB001 mouse Fab variant VL S57Q (Fab, V domains shown) VH: EVQLKQSGPGLVAPSQSLSITCTVSGFSLSIYSVHWVRQPPGKGLEWLGMIWGGGSSDYNSALKSRLSISKDNSKSQVFLKMNSLQTDDTAMYYCARNGNFYAMDYWGQGTSVTVSS VL: QIVLTQSPAIMSASLGERVTMTCTASSSVSSSFLHWYQQKPGSSPQLWIYSTSNLAQGVPARFSGSGSGTSYSLTISSMEAEDAATYYCHQYHHSPYIYTFGGGTKLEIK | 0.807 fold | 0.658
20 | KB001 mouse Fab variant VL S57F (Fab, V domains shown) VH: EVQLKQSGPGLVAPSQSLSITCTVSGFSLSIYSVHWVRQPPGKGLEWLGMIWGGGSSDYNSALKSRLSISKDNSKSQVFLKMNSLQTDDTAMYYCARNGNFYAMDYWGQGTSVTVSS VL: QIVLTQSPAIMSASLGERVTMTCTASSSVSSSFLHWYQQKPGSSPQLWIYSTSNLAFGVPARFSGSGSGTSYSLTISSMEAEDAATYYCHQYHHSPYIYTFGGGTKLEIK | 0.963 fold and 0.965 fold and 0.977 fold | 0.785 and 0.787 and 0.797
